Here are results for two compounds from paper PMC4755954, “Impact of clinically tested NEP/ACE inhibitors on tumor uptake of [^111In-DOTA]MG11—first estimates for clinical translation” (EJNMMI Research, 2016).

Square brackets hold non-standard residues; d marks the D form. Peptide text beside a SMILES is read from it. * marks the point of attachment. DOTA = O=C(O)CN1CCN(CC(=O)O)CCN(CC(=O)*)CCN(CC(=O)O)CC1

For series [1] the following is noted: iv infusion of 150 mg in 250 mL of isotonic glucose in 42 patients; cited from earlier work. An excerpt:
Aiming at clinical translation, our interest has been attracted by two clinically certified NEP inhibitors, TO and its prodrug Race. TO is a potent, reversible NEP inhibitor with a relative rapid onset of action, but its water solubility is not ideal for iv injection as a bolus together with the radiopeptide. […] The impact of TO on the bioavailability and tumor uptake of our paradigm compound [^111In-DOTA] ...

A short description of series [2]: in vivo. Details: species or system SCID mice. The settings on record: male, SCID, mouse, iv, 10 pmol total peptide, total radioactivity, %ID/g tissue ± SD. As for the experimental part: (§1) Mice had access to drinking water ad libitum until they were euthanized at 4 h pi. Blood samples, organs of interest, and tumors were collected immediately after dissection, weighted, and measured for radioactivity in the gamma counter; only stomachs were emptied of their contents prior to measurements. Biodistribution data were calculated as percent of injected dose per gram tissue (% ID/g) with the aid of suitable standards of the injected dose, using the GraphPad Prism Software (San Diego, CA).
Inocula of freshly harvested A431-CCK2R(+/−) cells (1.6 × 10^7/1.4 × 10^7 cell suspensions in 150 μL saline) were sc-injected in the right and left flanks of the SCID mice (male SCID mice, 6 weeks of age and of 18 ± 2 g body weight on arrival day; NCSR “Demokritos” Animal House). The animals were kept in aseptic conditions for 8 days till well-palpable tumors (0.26 ± 0.08 g) developed at the inoculation sites. At the day of the experiment, the mice received a bolus of [^111In-DOTA]MG11 (100 μL, 37–74 kBq, 10 pmol total peptide, in saline/EtOH 9/1 v/v) through the tail vein, coinjected with (a) vehicle (100 μL; control group, n = 5), (b) three different doses of PA (3 μg, n = 5; 30 μg, n = 4; or 300 μg PA, n = 10, dissolved in 100 μL vehicle), and (c) three different doses of TO (1.5, 15, or 150 μg TO dissolved in 100 μL vehicle, all groups of n = 4). Mice had free access to drinking water until they were sacrificed at 4 h pi, and biodistribution was conducted as described above.

Series [3] is described as follows: in vivo. The arrangement: species or system SCID mice. The settings on record: male, SCID, mouse, iv, 10 pmol total peptide, total radioactivity, %ID/g tissue ± SD. As for the experimental part: In-house male SCID mice (NCSR “Demokritos” Animal House) of 6 weeks of age at the time of arrival (18 ± 2 g body weight) were inoculated subcutaneously (sc) in their flanks with a suspension of freshly harvested AR42J cells (1 × 10^7 cells in ~150 μL saline). Animals were kept in aseptic conditions for 14 days when well-palpable tumors developed at the inoculation sites (0.31 ± 0.17 g). At the day of biodistribution, animals received a bolus of [^111In-DOTA]MG11 (100 μL, 37–74 kBq, 10 pmol total peptide, in saline/EtOH 9/1 v/v) through the tail vein, coinjected with (a) vehicle (100 μL; control group, n = 10), (b) PA (100 μL of vehicle containing 300 μg PA; PA group, n = 10), (c) TO (100 μL of vehicle containing 150 μg TO; TO group, n = 4), (d) Lis (100 μL of vehicle containing 100 μg Lis; Lis group, n = 4), (e) PA plus Lis (100 μL vehicle containing 300 μg PA and 100 μg Lis; PA+Lis group, n = 5), or (f) 30–40 min after ip injection of Race (3 mg Race dissolved in 0.025 mL DMSO and freshly mixed with 0.375 mL saline; Race group, n = 4). In a separate animal group, the mice were coinjected with 100 μL vehicle containing both 300 μg PA and 100 μg DG2 [25] to assess non-specific tumor uptake during in situ NEP inhibition (in vivo CCK2R blockade; block group, n = 4).
as §1
This is another data set of the same source.

In the case of `O=C(O)CNC(=O)C(CS)Cc1ccccc1` (racemic) [TO, DL-3-mercapto-2-benzylpropanoylglycine], the “hemodynamic tolerance in human” value in series [1] is listed as “excellent hemodynamic tolerance”.

The tissue uptake is the share of the injected amount in each gram of the tissue. On to `CSCC[C@H](NC(=O)[C@H](Cc1c[nH]c2ccccc12)NC(=O)CNC(=O)[C@H](Cc1ccc(O)cc1)NC(=O)[C@H](C)NC(=O)[C@@H](CCC(=O)O)NC(=O)CN1CCN(CC(=O)O)CCN(CC(=O)O)CCN(CC(=O)O)CC1)C(=O)N[C@@H](CC(=O)O)C(=O)N[C@@H](Cc1ccccc1)C(N)=O` [[^111In-DOTA]MG11, metal not drawn] ({DOTA}-[dE]AYGWMDF-NH2), for which the tissue uptake at 4 h stood at 0.01 ± 0.01 %ID/g in “in vivo [2]” (Blood); 0.02 ± 0.01 %ID/g in the series “in vivo [2]” (Femur); 0.02 ± 0.01 %ID/g in “in vivo [2]” (Heart); 0.83 ± 0.53 %ID/g in “in vivo [2]” (Intestines); 1.3 ± 0.29 %ID/g in the series “in vivo [2]” (Kidneys); 0.11 ± 0.02 %ID/g in “in vivo [2]” (Liver). Besides, the tissue uptake at 4 h in “in vivo [2]” (Lung) was 0.03 ± 0.01 %ID/g; in “in vivo [2]” (Muscle) it was 0.02 ± 0.01 %ID/g; in “in vivo [2]” (Pancreas) it was 0.05 ± 0.02 %ID/g; in the series “in vivo [2]” (Spleen) it was 0.06 ± 0.01 %ID/g; in “in vivo [2]” (Stomach), 1.32 ± 0.26 %ID/g; in the series “in vivo [2]” (Tumor (+) (A431-CCK2R(+))), 2.5 ± 0.92 %ID/g. Besides, the tissue uptake at 4 h in “in vivo [2]” (Tumor (−) (A431-CCK2R(−))) was 0.12 ± 0.02 %ID/g; in “in vivo [3]” (Blood) it was 0.04 ± 0.01 %ID/g; in “in vivo [3]” (Femur), 0.09 ± 0.05 %ID/g; in the series “in vivo [3]” (Heart), 0.05 ± 0.02 %ID/g; in “in vivo [3]” (Intestines), 0.89 ± 0.76 %ID/g; in “in vivo [3]” (Kidneys) it was 1.86 ± 0.25 %ID/g. Moreover, the tissue uptake at 4 h came out at 0.13 ± 0.03 %ID/g in “in vivo [3]” (Liver); 0.07 ± 0.02 %ID/g in “in vivo [3]” (Lung); 0.04 ± 0.01 %ID/g in “in vivo [3]” (Muscle); 0.11 ± 0.03 %ID/g in “in vivo [3]” (Pancreas); 0.17 ± 0.07 %ID/g in the series “in vivo [3]” (Spleen); 1.53 ± 0.65 %ID/g in the series “in vivo [3]” (Stomach). Moreover, the tissue uptake at 4 h in the series “in vivo [3]” (Tumor (AR42J)) worked out at 1.82 ± 1.25 %ID/g.
